{"source": "patent US20260217835A1", "about": "(published 2026)", "data": [{"biological_target": "the molecule itself", "test": "SEC peak area ratio after coexpression of full-length heavy chain, light chain and Fc fragment", "units": {"Homo full-length heavy chain (%)": "%"}, "values": [{"protein": "IgG1 full-length heavy chain with E345R/K360E/D399M/Y407A/K409V (SEQ ID NO: 58) with light chain SEQ ID NO: 61 (antibody) heavy: QVQLQESGPGLVRPSQTLSLTCTVSGYSITSDHAWSWVRQPPGRGLEWIGYISYSGITTYNPSLKSRVTMLRDTSKNQFSLRLSSVTAADTAVYYCARSLARTTAMDYWGQGSLVTVSSASTKGPSVFPLAPSSKSTSGGTAALGCLVKDYFPEPVTVSWNSGALTSGVHTFPAVLQSSGLYSLSSVVTVPSSSLGTQTYICNVNHKPSNTKVDKRVEPKSCDKTHTCPPCPAPELLGGPSVFLFPPKPKDTLMISRTPEVTCVVVDVSHEDPEVKFNWYVDGVEVHNAKTKPREEQYNSTYRVVSVLTVLHQDWLNGKEYKCKVSNKALPAPIEKTISKAKGQPRRPQVYTLPPSREEMTENQVSLTCLVKGFYPSDIAVEWESNGQPENNYKTTPPVLMSDGSFFLASVLTVDKSRWQQGNVFSCSVMHEALHNHYTQKSLSLSP light: not shown", "Homo full-length heavy chain (%)": 70.3}, {"protein": "IgG1 full-length heavy chain with T366W/L368A/Y407V (SEQ ID NO: 26) with light chain SEQ ID NO: 61 (antibody) heavy: QVQLQESGPGLVRPSQTLSLTCTVSGYSITSDHAWSWVRQPPGRGLEWIGYISYSGITTYNPSLKSRVTMLRDTSKNQFSLRLSSVTAADTAVYYCARSLARTTAMDYWGQGSLVTVSSASTKGPSVFPLAPSSKSTSGGTAALGCLVKDYFPEPVTVSWNSGALTSGVHTFPAVLQSSGLYSLSSVVTVPSSSLGTQTYICNVNHKPSNTKVDKRVEPKSCDKTHTCPPCPAPELLGGPSVFLFPPKPKDTLMISRTPEVTCVVVDVSHEDPEVKFNWYVDGVEVHNAKTKPREEQYNSTYRVVSVLTVLHQDWLNGKEYKCKVSNKALPAPIEKTISKAKGQPREPQVYTLPPSREEMTKNQVSLWCAVKGFYPSDIAVEWESNGQPENNYKTTPPVLDSDGSFFLVSKLTVDKSRWQQGNVFSCSVMHEALHNHYTQKSLSLSP light: not shown", "Homo full-length heavy chain (%)": 73.8}, {"protein": "IgG1 full-length heavy chain with T350V/L351Y/T366L/K392L/T394W/F405A/Y407V (SEQ ID NO: 60) with light chain SEQ ID NO: 61 (antibody) heavy: QVQLQESGPGLVRPSQTLSLTCTVSGYSITSDHAWSWVRQPPGRGLEWIGYISYSGITTYNPSLKSRVTMLRDTSKNQFSLRLSSVTAADTAVYYCARSLARTTAMDYWGQGSLVTVSSASTKGPSVFPLAPSSKSTSGGTAALGCLVKDYFPEPVTVSWNSGALTSGVHTFPAVLQSSGLYSLSSVVTVPSSSLGTQTYICNVNHKPSNTKVDKRVEPKSCDKTHTCPPCPAPELLGGPSVFLFPPKPKDTLMISRTPEVTCVVVDVSHEDPEVKFNWYVDGVEVHNAKTKPREEQYNSTYRVVSVLTVLHQDWLNGKEYKCKVSNKALPAPIEKTISKAKGQPREPQVYVYPPSREEMTKNQVSLLCLVKGFYPSDIAVEWESNGQPENNYLTWPPVLDSDGSFALVSKLTVDKSRWQQGNVFSCSVMHEALHNHYTQKSLSLSP light: not shown", "Homo full-length heavy chain (%)": 71.9}, {"protein": "IgG1 full-length heavy chain with E356K/K392D/D399K/K409D (SEQ ID NO: 56) with light chain SEQ ID NO: 61 (antibody) heavy: QVQLQESGPGLVRPSQTLSLTCTVSGYSITSDHAWSWVRQPPGRGLEWIGYISYSGITTYNPSLKSRVTMLRDTSKNQFSLRLSSVTAADTAVYYCARSLARTTAMDYWGQGSLVTVSSASTKGPSVFPLAPSSKSTSGGTAALGCLVKDYFPEPVTVSWNSGALTSGVHTFPAVLQSSGLYSLSSVVTVPSSSLGTQTYICNVNHKPSNTKVDKRVEPKSCDKTHTCPPCPAPELLGGPSVFLFPPKPKDTLMISRTPEVTCVVVDVSHEDPEVKFNWYVDGVEVHNAKTKPREEQYNSTYRVVSVLTVLHQDWLNGKEYKCKVSNKALPAPIEKTISKAKGQPREPQVYTLPPSRKEMTKNQVSLTCLVKGFYPSDIAVEWESNGQPENNYDTTPPVLKSDGSFFLYSDLTVDKSRWQQGNVFSCSVMHEALHNHYTQKSLSLSP light: not shown", "Homo full-length heavy chain (%)": 70.7}, {"protein": "IgG1 full-length heavy chain with K392D/D399K/K409D (SEQ ID NO: 50) with light chain SEQ ID NO: 61 (antibody) heavy: QVQLQESGPGLVRPSQTLSLTCTVSGYSITSDHAWSWVRQPPGRGLEWIGYISYSGITTYNPSLKSRVTMLRDTSKNQFSLRLSSVTAADTAVYYCARSLARTTAMDYWGQGSLVTVSSASTKGPSVFPLAPSSKSTSGGTAALGCLVKDYFPEPVTVSWNSGALTSGVHTFPAVLQSSGLYSLSSVVTVPSSSLGTQTYICNVNHKPSNTKVDKRVEPKSCDKTHTCPPCPAPELLGGPSVFLFPPKPKDTLMISRTPEVTCVVVDVSHEDPEVKFNWYVDGVEVHNAKTKPREEQYNSTYRVVSVLTVLHQDWLNGKEYKCKVSNKALPAPIEKTISKAKGQPREPQVYTLPPSREEMTKNQVSLTCLVKGFYPSDIAVEWESNGQPENNYDTTPPVLKSDGSFFLYSDLTVDKSRWQQGNVFSCSVMHEALHNHYTQKSLSLSP light: not shown", "Homo full-length heavy chain (%)": 76.8}, {"protein": "IgG1 full-length heavy chain with E345R/Q347R/K360D/T366V/D399M/Y407A/K409V (SEQ ID NO: 55) with light chain SEQ ID NO: 61 (antibody) heavy: QVQLQESGPGLVRPSQTLSLTCTVSGYSITSDHAWSWVRQPPGRGLEWIGYISYSGITTYNPSLKSRVTMLRDTSKNQFSLRLSSVTAADTAVYYCARSLARTTAMDYWGQGSLVTVSSASTKGPSVFPLAPSSKSTSGGTAALGCLVKDYFPEPVTVSWNSGALTSGVHTFPAVLQSSGLYSLSSVVTVPSSSLGTQTYICNVNHKPSNTKVDKRVEPKSCDKTHTCPPCPAPELLGGPSVFLFPPKPKDTLMISRTPEVTCVVVDVSHEDPEVKFNWYVDGVEVHNAKTKPREEQYNSTYRVVSVLTVLHQDWLNGKEYKCKVSNKALPAPIEKTISKAKGQPRRPRVYTLPPSREEMTDNQVSLVCLVKGFYPSDIAVEWESNGQPENNYKTTPPVLMSDGSFFLASVLTVDKSRWQQGNVFSCSVMHEALHNHYTQKSLSLSP light: not shown", "Homo full-length heavy chain (%)": 70.7}, {"protein": "IgG1 full-length heavy chain with E356K/D399K/K409E/K439E (SEQ ID NO: 36) with light chain SEQ ID NO: 61 (antibody) heavy: QVQLQESGPGLVRPSQTLSLTCTVSGYSITSDHAWSWVRQPPGRGLEWIGYISYSGITTYNPSLKSRVTMLRDTSKNQFSLRLSSVTAADTAVYYCARSLARTTAMDYWGQGSLVTVSSASTKGPSVFPLAPSSKSTSGGTAALGCLVKDYFPEPVTVSWNSGALTSGVHTFPAVLQSSGLYSLSSVVTVPSSSLGTQTYICNVNHKPSNTKVDKRVEPKSCDKTHTCPPCPAPELLGGPSVFLFPPKPKDTLMISRTPEVTCVVVDVSHEDPEVKFNWYVDGVEVHNAKTKPREEQYNSTYRVVSVLTVLHQDWLNGKEYKCKVSNKALPAPIEKTISKAKGQPREPQVYTLPPSRKEMTKNQVSLTCLVKGFYPSDIAVEWESNGQPENNYKTTPPVLKSDGSFFLYSELTVDKSRWQQGNVFSCSVMHEALHNHYTQESLSLSP light: not shown", "Homo full-length heavy chain (%)": 73.3}, {"protein": "IgG1 full-length heavy chain with Q347E/S354Y/T366Y/Y407T (SEQ ID NO: 39) with light chain SEQ ID NO: 61 (antibody) heavy: QVQLQESGPGLVRPSQTLSLTCTVSGYSITSDHAWSWVRQPPGRGLEWIGYISYSGITTYNPSLKSRVTMLRDTSKNQFSLRLSSVTAADTAVYYCARSLARTTAMDYWGQGSLVTVSSASTKGPSVFPLAPSSKSTSGGTAALGCLVKDYFPEPVTVSWNSGALTSGVHTFPAVLQSSGLYSLSSVVTVPSSSLGTQTYICNVNHKPSNTKVDKRVEPKSCDKTHTCPPCPAPELLGGPSVFLFPPKPKDTLMISRTPEVTCVVVDVSHEDPEVKFNWYVDGVEVHNAKTKPREEQYNSTYRVVSVLTVLHQDWLNGKEYKCKVSNKALPAPIEKTISKAKGQPREPEVYTLPPYREEMTKNQVSLYCLVKGFYPSDIAVEWESNGQPENNYKTTPPVLDSDGSFFLTSKLTVDKSRWQQGNVFSCSVMHEALHNHYTQKSLSLSP light: not shown", "Homo full-length heavy chain (%)": 70.4}, {"protein": "IgG1 full-length heavy chain with K392L/T394W/F405A/Y407V (SEQ ID NO: 41) with light chain SEQ ID NO: 61 (antibody, also called Sample No. 200 full-length heavy chain) heavy: QVQLQESGPGLVRPSQTLSLTCTVSGYSITSDHAWSWVRQPPGRGLEWIGYISYSGITTYNPSLKSRVTMLRDTSKNQFSLRLSSVTAADTAVYYCARSLARTTAMDYWGQGSLVTVSSASTKGPSVFPLAPSSKSTSGGTAALGCLVKDYFPEPVTVSWNSGALTSGVHTFPAVLQSSGLYSLSSVVTVPSSSLGTQTYICNVNHKPSNTKVDKRVEPKSCDKTHTCPPCPAPELLGGPSVFLFPPKPKDTLMISRTPEVTCVVVDVSHEDPEVKFNWYVDGVEVHNAKTKPREEQYNSTYRVVSVLTVLHQDWLNGKEYKCKVSNKALPAPIEKTISKAKGQPREPQVYTLPPSREEMTKNQVSLTCLVKGFYPSDIAVEWESNGQPENNYLTWPPVLDSDGSFALVSKLTVDKSRWQQGNVFSCSVMHEALHNHYTQKSLSLSP light: not shown", "Homo full-length heavy chain (%)": 72.7}, {"protein": "IgG1 full-length heavy chain with E356K/K392D/D399K/K439E (SEQ ID NO: 48) with light chain SEQ ID NO: 61 (antibody) heavy: QVQLQESGPGLVRPSQTLSLTCTVSGYSITSDHAWSWVRQPPGRGLEWIGYISYSGITTYNPSLKSRVTMLRDTSKNQFSLRLSSVTAADTAVYYCARSLARTTAMDYWGQGSLVTVSSASTKGPSVFPLAPSSKSTSGGTAALGCLVKDYFPEPVTVSWNSGALTSGVHTFPAVLQSSGLYSLSSVVTVPSSSLGTQTYICNVNHKPSNTKVDKRVEPKSCDKTHTCPPCPAPELLGGPSVFLFPPKPKDTLMISRTPEVTCVVVDVSHEDPEVKFNWYVDGVEVHNAKTKPREEQYNSTYRVVSVLTVLHQDWLNGKEYKCKVSNKALPAPIEKTISKAKGQPREPQVYTLPPSRKEMTKNQVSLTCLVKGFYPSDIAVEWESNGQPENNYDTTPPVLKSDGSFFLYSKLTVDKSRWQQGNVFSCSVMHEALHNHYTQESLSLSP light: not shown", "Homo full-length heavy chain (%)": 69.6}, {"protein": "IgG1 full-length heavy chain with Q347R/K360E/D399V/F405T/K409W (SEQ ID NO: 31) with light chain SEQ ID NO: 61 (antibody) heavy: QVQLQESGPGLVRPSQTLSLTCTVSGYSITSDHAWSWVRQPPGRGLEWIGYISYSGITTYNPSLKSRVTMLRDTSKNQFSLRLSSVTAADTAVYYCARSLARTTAMDYWGQGSLVTVSSASTKGPSVFPLAPSSKSTSGGTAALGCLVKDYFPEPVTVSWNSGALTSGVHTFPAVLQSSGLYSLSSVVTVPSSSLGTQTYICNVNHKPSNTKVDKRVEPKSCDKTHTCPPCPAPELLGGPSVFLFPPKPKDTLMISRTPEVTCVVVDVSHEDPEVKFNWYVDGVEVHNAKTKPREEQYNSTYRVVSVLTVLHQDWLNGKEYKCKVSNKALPAPIEKTISKAKGQPREPRVYTLPPSREEMTENQVSLTCLVKGFYPSDIAVEWESNGQPENNYKTTPPVLVSDGSFTLYSWLTVDKSRWQQGNVFSCSVMHEALHNHYTQKSLSLSP light: not shown", "Homo full-length heavy chain (%)": 72.1}, {"protein": "IgG2 full-length heavy chain with K392D/D399K/K409D (SEQ ID NO: 91) with light chain SEQ ID NO: 61 (antibody, also called Sample No. 212 full-length heavy chain) heavy: QVQLQESGPGLVRPSQTLSLTCTVSGYSITSDHAWSWVRQPPGRGLEWIGYISYSGITTYNPSLKSRVTMLRDTSKNQFSLRLSSVTAADTAVYYCARSLARTTAMDYWGQGSLVTVSSASTKGPSVFPLAPCSRSTSESTAALGCLVKDYFPEPVTVSWNSGALTSGVHTFPAVLQSSGLYSLSSVVTVPSSNFGTQTYTCNVDHKPSNTKVDKTVERKCCVECPPCPAPPVAGPSVFLFPPKPKDTLMISRTPEVTCVVVDVSHEDPEVQFNWYVDGVEVHNAKTKPREEQFNSTFRVVSVLTVVHQDWLNGKEYKCKVSNKGLPAPIEKTISKTKGQPREPQVYTLPPSREEMTKNQVSLTCLVKGFYPSDIAVEWESNGQPENNYDTTPPMLKSDGSFFLYSDLTVDKSRWQQGNVFSCSVMHEALHNHYTQKSLSLSP light: not shown", "Homo full-length heavy chain (%)": 79.6}]}]}
